For this assay, the target named is T1, Flag.RUNX2(P409A) (Homo sapiens (Human), UniProt Q13950 20-521).
T1 construct: also called mutant RUNX2; RUNX2 mutant
Briefly: co-immunoprecipitation, Flag.RUNX2(P409A) and HA.YAP. As to the method: Mutation of the first proline to an alanine completely abolished transcriptional activity. We reasoned that if YAP was directly interacting with RUNX2, a mutation of the first proline to an alanine in RUNX2 would reduce YAP binding and not affect the repression of the p21 CIP1 promoter. The mutant RUNX2, designated RUNX2 (P409A), was generated and its ability to interact with YAP was assessed. […] We expected that the mutant RUNX2 would retain its ability to bind DNA since the P409A mutation was downstream of the Runt DNA binding domain (amino acids 50-177). To measure RUNX2(P409A) DNA binding, DNA precipitation assays using the wild type 20-mer, double-stranded oligonucleotide from the p21 CIP1 promoter site A were performed using nuclear lysates from HEK293 cells transfected with two mutant Flag.RUNX2(P409A) clones. Both RUNX2(P409A) mutant clones retained DNA-binding activity. After verification of DNA binding, the ability of the RUNX2 mutant protein to repress p21CIP1 promoter activity was determined. NIH3T3 cells were transfected with either RUNX2 or RUNX2(P409A) and luciferase activity was measured. Both mutant RUNX2(P409A) clones and the wild-type RUNX2 were strong repressors of the p21CIP1 promoter. However, HA.YAP was unable to relieve p21 CIP1 promoter repression by the mutant Flag.RUNX2(P409A). […]

T1 sequence (Q13950 other isoform, or with tags, fused parts or gaps P409A P409A): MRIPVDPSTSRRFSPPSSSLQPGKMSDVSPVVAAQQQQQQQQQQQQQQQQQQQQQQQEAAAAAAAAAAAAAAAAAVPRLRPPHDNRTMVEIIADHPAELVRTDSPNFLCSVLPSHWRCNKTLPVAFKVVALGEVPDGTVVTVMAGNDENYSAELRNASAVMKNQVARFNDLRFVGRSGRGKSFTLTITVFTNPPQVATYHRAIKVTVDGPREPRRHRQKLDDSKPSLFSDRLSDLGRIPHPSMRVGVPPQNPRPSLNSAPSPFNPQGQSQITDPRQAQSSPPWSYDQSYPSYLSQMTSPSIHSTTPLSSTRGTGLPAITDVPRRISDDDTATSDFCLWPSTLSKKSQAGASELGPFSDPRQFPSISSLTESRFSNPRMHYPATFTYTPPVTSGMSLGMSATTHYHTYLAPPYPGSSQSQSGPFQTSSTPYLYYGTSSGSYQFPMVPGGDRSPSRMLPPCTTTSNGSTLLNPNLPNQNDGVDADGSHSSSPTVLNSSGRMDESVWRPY

B1: HA.YAP (other, not shown: small tags and cut ends)
chain: MDPGQQPPPQPAPQGQGQPPSQPPQGQGPPSGPGQPAPAATQAAPQAPPAGHQIVHVRGDSETDLEALFNAVMNPKTANVPQTVPMRLRKLPDSFFKPPEPKSHSRQASTDAGTAGALTPQHVRAHSSPASLQLGAVSPGTLTPTGVVSGPAATPTAQHLRQSSFEIPDDVPLPAGWEMAKTSSGQRYFLNHIDQTTTWQDPRKAMLSQMNVTAPTSPPVQQNMMNSASAMNQRISQSAPVKQPPPLAPQSPQGGVMGGSNSNQQQQMRLQQLQMEKERLRLKQQELLRQVRPQELALRSQLPTLEQDGGTQNPVSSPGMSQELRTMTTNSSDPFLNSGTYHSRDESTDSGLSMSSYSVPRTPDDFLNSVDEMDTGDTINQSTLPSQQNRFPDYLEAIPGTNVDLGTLEGDGMNIEGEELMPSLQEALSSDILNDMESVLAATKLDKESFLTWL
notes: Expressed in HEK293 cells and assayed in nuclear lysates; also called HA-tagged YAP; YAP65
For B1, the binding result is “no binding”.

Source of the values: US8084434 (UNIVERSITY OF MARYLAND, dated 2011).
